Source: publication PMC10341550 (2023)

Biological target: ROCK2 (Homo sapiens, UniProt O75116)
Experiment: competition fluorescence polarization

Chain of ROCK2 (O75116 whole entry): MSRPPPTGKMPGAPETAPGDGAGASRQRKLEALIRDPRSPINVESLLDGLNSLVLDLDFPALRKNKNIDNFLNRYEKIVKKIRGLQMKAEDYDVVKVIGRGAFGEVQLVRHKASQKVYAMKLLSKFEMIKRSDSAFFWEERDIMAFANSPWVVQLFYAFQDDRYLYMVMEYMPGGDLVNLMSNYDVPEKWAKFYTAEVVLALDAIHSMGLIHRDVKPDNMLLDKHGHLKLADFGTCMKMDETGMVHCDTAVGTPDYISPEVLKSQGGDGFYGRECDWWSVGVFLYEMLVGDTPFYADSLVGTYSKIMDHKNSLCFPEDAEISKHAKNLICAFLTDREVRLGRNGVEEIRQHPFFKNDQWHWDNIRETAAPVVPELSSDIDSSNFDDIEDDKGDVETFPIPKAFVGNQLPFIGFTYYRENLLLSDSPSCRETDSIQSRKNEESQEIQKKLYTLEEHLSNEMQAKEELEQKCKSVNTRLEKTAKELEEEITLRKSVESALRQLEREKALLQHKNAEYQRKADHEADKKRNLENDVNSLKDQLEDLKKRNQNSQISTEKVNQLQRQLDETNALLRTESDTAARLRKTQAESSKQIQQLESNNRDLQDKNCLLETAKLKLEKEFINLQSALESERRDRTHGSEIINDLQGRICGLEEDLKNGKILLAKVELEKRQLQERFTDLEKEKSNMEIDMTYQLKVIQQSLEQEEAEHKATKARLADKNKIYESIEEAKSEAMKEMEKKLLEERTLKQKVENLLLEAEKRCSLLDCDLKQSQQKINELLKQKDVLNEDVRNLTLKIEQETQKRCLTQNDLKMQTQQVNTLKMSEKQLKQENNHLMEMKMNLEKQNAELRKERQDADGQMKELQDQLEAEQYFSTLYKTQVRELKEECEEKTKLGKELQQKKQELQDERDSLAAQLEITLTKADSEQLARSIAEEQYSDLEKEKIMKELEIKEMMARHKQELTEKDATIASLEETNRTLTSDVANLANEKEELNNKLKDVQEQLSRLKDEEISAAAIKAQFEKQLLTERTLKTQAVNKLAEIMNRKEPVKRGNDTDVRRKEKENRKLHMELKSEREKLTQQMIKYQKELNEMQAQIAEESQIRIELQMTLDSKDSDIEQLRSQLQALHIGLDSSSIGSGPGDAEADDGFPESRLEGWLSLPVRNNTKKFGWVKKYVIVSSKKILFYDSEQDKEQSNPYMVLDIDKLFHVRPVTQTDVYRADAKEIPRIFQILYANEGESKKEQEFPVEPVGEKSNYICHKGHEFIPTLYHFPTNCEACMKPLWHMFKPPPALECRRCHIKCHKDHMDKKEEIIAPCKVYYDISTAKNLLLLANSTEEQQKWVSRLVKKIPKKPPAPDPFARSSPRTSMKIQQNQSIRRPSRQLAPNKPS

Kd: 3.5 nM
Binder: ADRGLTTRPGSGLTNIKTEEISEVKMDAEFRHDSGYEVHHQKLVFFAEDV (BACE1 C-terminal peptide present) [APP 646-695]
